Experimental data as given in US20190352387A1 (Chugai, published 2019).

Columns and labels:
[1] = biological target: T1, Recombinant mouse sclerostin (mouse, UniProt Q99P68 24-211); assay: SPR (Biacore T200), 37 C, dissociation at pH 5.8 of complex formed at pH 7.4
T1 construct: Whole entry as named; also called mouse-SOST
T1 sequence: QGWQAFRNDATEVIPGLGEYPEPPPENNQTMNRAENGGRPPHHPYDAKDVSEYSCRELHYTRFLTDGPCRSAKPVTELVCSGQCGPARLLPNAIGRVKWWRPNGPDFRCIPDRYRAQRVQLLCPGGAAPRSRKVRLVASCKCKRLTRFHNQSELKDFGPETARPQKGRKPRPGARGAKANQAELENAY
Experimental: (§1) The affinity of anti-sclerostin variants binding to human, cynomolgus monkey (cyno), rat, or mouse sclerostin at pH 7.4 and pH 5.8 were determined at 37 degrees C. using Biacore T200 instrument (GE Healthcare). Anti-human Fc (GE Healthcare) was immobilized onto all flow cells of a CM4 sensor chip using amine coupling kit (GE Healthcare). All antibodies and analytes were prepared in ACES pH7.4 or pH 5.8 buffer containing 20 mM ACES, 150 mM NaCl, 1.2 mM CaCl₂, 0.05% Tween 20, 0.005% NaN₃. Each antibody was captured onto the sensor surface by anti-human Fc. […] Sensor surface was regenerated each cycle with 3M MgCl₂.
The pH dependent interaction assessment was determined by a modified Biacore assay. Briefly, an additional dissociation phase at pH5.8 was integrated into the Biacore assay immediately after dissociation phase at pH7.4. This is to assess the pH-dependent dissociation between antibody and antigen from the complexes formed at pH7.4. The dissociation rate at pH5.8 buffer was determined by processing and fitting data using Scrubber 2.0 (BioLogic Software) curve fitting software.

[2] = biological target: T1, Recombinant mouse sclerostin; assay: SPR (Biacore T200), 37 C, antibody captured by anti-human Fc, sclerostin as analyte, pH 5.8
Experimental: as §1

B1: mabB (antibody, V domains shown)
VH: QVQLVQSGAEVKKPGASVKVSCKVSGFPIKDTFQHWVRQAPGKGLEWMGWSDPEIGDTEYASKFQGRVTMTEDTSTDTAYMELSSLRSEDTAVYYCATGDTTYKFDFWGQGTTVTVSS
VL: DIQMTQSPSSLSASVGDRVTITCKASQDVHTAVAWYQQKPGKAPKLLIYWASTRWTGVPSRFSGSGSGTDFTLTISSLQPEDFATYYCQQYSDYPWTFGGGTKVEIK
For B1, the koff [1] was 0.00265 s⁻¹ and the Kd [2] was 0.26 nM.
